Six molecules from EP4755449A2 (CHUGAI SEIYAKU KABUSHIKI KAISHA, dated 2026) can be followed below.

The target in assay [1] is T1, human Fc gamma RIIb on MDCK cells (human, UniProt P31994 43-310).
T1 sequence (looked up): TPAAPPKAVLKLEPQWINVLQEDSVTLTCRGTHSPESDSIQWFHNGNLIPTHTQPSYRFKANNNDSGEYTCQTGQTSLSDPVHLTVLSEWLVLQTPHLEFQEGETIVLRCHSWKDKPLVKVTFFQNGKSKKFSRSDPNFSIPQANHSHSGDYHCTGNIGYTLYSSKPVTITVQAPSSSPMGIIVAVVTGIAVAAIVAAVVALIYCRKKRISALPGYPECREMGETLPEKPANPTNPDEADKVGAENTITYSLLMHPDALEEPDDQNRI
The assay can be described thus: cell-based or functional assay.

Assay [2] concerns the target T2, human Fc gamma RIIaH extracellular domain, His-tagged (human, UniProt P12318 34-217).
T2 construct: also called FcgRIIaH; human Fc gamma RIIa (type H)
T2 sequence: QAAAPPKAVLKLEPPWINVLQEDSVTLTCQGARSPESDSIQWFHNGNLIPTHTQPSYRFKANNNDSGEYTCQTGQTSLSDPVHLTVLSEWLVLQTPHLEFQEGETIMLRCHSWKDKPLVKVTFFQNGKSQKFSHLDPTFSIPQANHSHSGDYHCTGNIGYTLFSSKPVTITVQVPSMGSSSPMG
Nature of the assay: SPR 25C.

Assay [3] concerns the target T3, human Fc gamma RIIb extracellular domain, His-tagged (human, UniProt P31994 43-217).
T3 construct: also called FcgRIIb
T3 sequence: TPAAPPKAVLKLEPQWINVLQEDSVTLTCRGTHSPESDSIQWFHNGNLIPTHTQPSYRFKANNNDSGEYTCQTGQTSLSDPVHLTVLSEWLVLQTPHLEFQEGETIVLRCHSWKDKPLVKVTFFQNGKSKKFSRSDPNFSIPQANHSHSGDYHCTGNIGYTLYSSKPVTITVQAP
Nature of the assay: SPR 25C.

Assay [4] has as its target T4, cyno Fc gamma RIIIaS extracellular domain, His-tagged (cynomolgus monkey, UniProt Q8SPW2 21-206 at identity 1.00)).
T4 construct: also called cynoFcgRIIIaS
T4 chain: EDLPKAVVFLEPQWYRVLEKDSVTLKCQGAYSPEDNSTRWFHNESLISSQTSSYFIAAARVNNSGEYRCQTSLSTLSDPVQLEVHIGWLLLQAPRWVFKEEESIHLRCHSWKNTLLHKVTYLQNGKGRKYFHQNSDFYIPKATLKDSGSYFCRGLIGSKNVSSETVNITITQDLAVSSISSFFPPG
Nature of the assay: SPR 25C.

Assay [5] concerns the target T5, cynomolgus monkey latent myostatin (cynomolgus monkey, UniProt Q95J86 25-266; Q95J86 267-375, limits assumed).
T5 construct: also called cyno latent myostatin
T5 sequence 1: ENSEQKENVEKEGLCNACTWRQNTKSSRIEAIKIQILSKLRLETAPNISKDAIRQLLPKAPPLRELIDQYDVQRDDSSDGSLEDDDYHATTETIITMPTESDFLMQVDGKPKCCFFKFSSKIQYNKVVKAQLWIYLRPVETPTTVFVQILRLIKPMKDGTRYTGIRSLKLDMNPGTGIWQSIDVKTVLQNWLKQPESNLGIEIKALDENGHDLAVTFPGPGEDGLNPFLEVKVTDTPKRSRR
T5 sequence 2: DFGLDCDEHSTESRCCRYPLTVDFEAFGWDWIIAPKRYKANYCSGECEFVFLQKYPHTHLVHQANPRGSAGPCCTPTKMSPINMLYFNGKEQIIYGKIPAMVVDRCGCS
The assay can be described thus: SPR 37C pH5.8; pH 5.8.

The target in assay [6] is T5, cynomolgus monkey latent myostatin. Nature of the assay: SPR 37C.
For assay [7] the target is unchanged. Nature of the assay: SPR 37C pH7.4; pH 7.4.
In the next assay the target is T6, mouse latent myostatin (mouse, UniProt O08689 26-267; O08689 268-376).
T6 sequence 1: T5 sequence 1 with N2G, Q5R, K6E, T19A, K25R, S26Y, K59R, V107A, E140K, N173S
T6 sequence 2: T5 sequence 2
Nature of the assay: SPR 37C pH7.4.

Another assay concerns the target T7, human latent myostatin (human, UniProt O14793 25-266; O14793 267-375).
T7 construct: non-covalent complex of two propeptides and the mature homodimer; also called human myostatin latent form
T7 sequence 1: T5 sequence 1 with A52V
T7 sequence 2: T5 sequence 2
Nature of the assay: SPR 37C pH7.4.

The target of the next assay is T8, GST-hMSTN 61-160aa (human, UniProt O14793 61-160).
T8 construct: not shown: GST tag of pGEX4.1 vector
T8 sequence: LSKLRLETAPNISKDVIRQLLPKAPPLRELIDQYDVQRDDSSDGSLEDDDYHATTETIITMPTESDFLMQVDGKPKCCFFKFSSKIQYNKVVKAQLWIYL
Nature of the assay: Western blot. (A western blot detects proteins with antibodies after separation by electrophoresis.)

In a further assay the target is T9, GST-hMSTN 141-241aa (human, UniProt A1C2U3 141-241 (Pongo pygmaeus entry)).
T9 construct: not shown: GST tag of pGEX4.1 vector
T9 sequence: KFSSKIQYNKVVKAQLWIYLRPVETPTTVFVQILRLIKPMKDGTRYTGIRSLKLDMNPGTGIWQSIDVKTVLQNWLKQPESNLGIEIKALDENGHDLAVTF
Nature of the assay: Western blot.

In a further assay the target is T10, GST-hMSTN 121-220aa (human, UniProt A1C2U3 121-220 (Pongo pygmaeus entry)).
T10 construct: not shown: GST tag of pGEX4.1 vector
T10 sequence: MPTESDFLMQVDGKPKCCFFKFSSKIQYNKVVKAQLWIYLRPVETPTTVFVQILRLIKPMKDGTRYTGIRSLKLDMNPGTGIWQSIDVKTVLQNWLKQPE
Nature of the assay: Western blot.

A further assay addresses T11, GST-hMSTN 101-200aa (human, UniProt A1C2U3 101-200 (Pongo pygmaeus entry)).
T11 construct: not shown: GST tag of pGEX4.1 vector
T11 sequence: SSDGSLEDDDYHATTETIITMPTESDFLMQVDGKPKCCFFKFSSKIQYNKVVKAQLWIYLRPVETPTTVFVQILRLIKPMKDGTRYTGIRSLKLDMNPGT
Nature of the assay: Western blot.

Another assay concerns the target T12, GST-hMSTN 81-180aa (human, UniProt A1C2U3 81-180 (Pongo pygmaeus entry)).
T12 construct: not shown: GST tag of pGEX4.1 vector
T12 sequence: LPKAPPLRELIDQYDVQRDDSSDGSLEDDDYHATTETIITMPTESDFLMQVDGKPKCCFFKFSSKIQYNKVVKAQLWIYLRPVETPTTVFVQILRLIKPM
The assay can be described thus: Western blot.

Assay [8] has as its target T13, human Fc gamma RIIIaV extracellular domain, His-tagged (human, UniProt P08637 17-208).
T13 construct: also called FcgRIIIaV
The assay can be described thus: SPR 25C.

Assay [9] addresses T14, human Fc gamma RIIaR extracellular domain, His-tagged (human, UniProt P12318 34-217).
T14 construct: also called FcgRIIaR; human Fc gamma RIIa (type R)
T14 chain: T2 sequence with H134R
The assay can be described thus: SPR 25C.

Changes are numbered by the printed parent chain. Names may count otherwise.

T13 sequence (P08637 17-208 F176V): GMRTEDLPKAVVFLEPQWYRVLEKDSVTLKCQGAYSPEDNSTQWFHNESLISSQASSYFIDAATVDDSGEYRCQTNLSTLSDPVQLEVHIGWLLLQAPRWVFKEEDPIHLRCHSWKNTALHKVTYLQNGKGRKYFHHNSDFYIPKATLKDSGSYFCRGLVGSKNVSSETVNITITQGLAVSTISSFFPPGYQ

B1: MS103240H795-TT33/M103202L1045-SK1 (antibody, human IgG1, kappa)
heavy: QVQLVESGGGLVQPGGSLRLSCAVSGIDLSHDDISWVRQAPGKGLEWVSIISYAGSTYYASWAKGRLTISKDTSKNQVVLTMTNMDPVDTATYYCARGVPAYSHGGDLWGQGTLVTVSSASTKGPSVFPLAPSSKSTSGGTAALGCLVKDYFPEPVTVSWNSGALTSGVHTFPAVLQSSGLYSLSSVVTVPSSSLGTQTYICNVNHKPSNTKVDKKVEPKSCDKTHTCPPCPAPEYLGGDSVFLFPPKPKDVLMISRTPEVTCVVIDVSHEDPEVKFNWYVDGVEVHNAKTKPREEQYNSTYRVVSVLPVLHRDWLNGKEYKCKVSNKALPKPIEKTISKAKGQPREPQVYTLPPSREEMTKNQVSLTCLVKGFYPSDIAVEWESNGQPENNYKTTPPVLDSDGSFFLYSKLTVKKSRWQQGNVFSCSVMHEALHNHYTQKSLSLSP
light: DIVMTQSPATLSLSPGERATLSCTTSQSVYHENWLSWFQQKPGQPPKLLIYWASTLAYGVPSRFSGSGSGTDFTLTISSLQPEDAATYYCAGGYGGGRYAFGQGTKVEIKRTVAAPSVFIFPPSDEQLKSGTASVVCLLNNFYPREAKVQWKVDNALQSGNSQESVTEQDSKDSTYSLSSTLTLSKADYEKHKVYACEVTHQGLSSPVTKSFNRGEC
Take B1: the “antigen antibody uptake into the cells” value in [1] is 36 fold of SG1.

B2: M103205H795-MY009/M103202L889-SK1 (antibody, human IgG1, kappa)
heavy: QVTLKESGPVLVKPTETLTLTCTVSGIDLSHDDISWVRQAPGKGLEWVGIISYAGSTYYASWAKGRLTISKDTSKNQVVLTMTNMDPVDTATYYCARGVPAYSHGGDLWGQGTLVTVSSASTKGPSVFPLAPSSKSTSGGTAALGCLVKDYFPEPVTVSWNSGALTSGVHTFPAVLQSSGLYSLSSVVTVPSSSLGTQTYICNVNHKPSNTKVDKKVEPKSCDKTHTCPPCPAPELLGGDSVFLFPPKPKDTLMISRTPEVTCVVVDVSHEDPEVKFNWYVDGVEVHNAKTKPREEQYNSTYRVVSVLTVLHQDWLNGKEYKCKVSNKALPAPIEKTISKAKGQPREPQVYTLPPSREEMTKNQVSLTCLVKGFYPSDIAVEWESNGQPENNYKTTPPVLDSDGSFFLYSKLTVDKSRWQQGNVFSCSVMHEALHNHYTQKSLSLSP
light: B1 light with T25S, E32A
notes: SG1 with P238D (EU); also called MS1032LO06-MY009; copies: 2 + 2
As to B2, the binding result in assay [2], in assay [3] and in assay [4] was “binds” each time.

B3: MS_M103205H1186-SG1/M103202L889-SK1 (antibody, human IgG1, kappa, V domains shown)
VH: QVTLKESGPVLVKPTETLTLTCTVSGIDLSHDDISWVRQAPGKGLEWVGIISYAGKKYYASWAKGRLTISKDTSKNQVVLTMTNMDPVDTATYYCARGVPAYSHGGDLWGQGTLVTVSS
VL: DIVMTQSPATLSLSPGERATLSCTSSQSVYHANWLSWFQQKPGQPPKLLIYWASTLAYGVPSRFSGSGSGTDFTLTISSLQPEDAATYYCAGGYGGGRYAFGQGTKVEIKR
notes: also called MS1032LO18-SG1
In the case of B3, the Kd in assay [5] is 80.9 nM; in assay [7], 0.354 nM; with mouse latent myostatin, 0.272 nM; with human latent myostatin, 0.329 nM. For the same molecule, the “ratio of KD at pH 5.8/pH7.4” value in [6] worked out at 229.

B4: MST1538 (antibody, human IgG1, kappa, V domains shown)
VH: QSLEESGGGLVKPGGTLTLTCKASGIDFSSYYYMCWVRQAPGKGLEWIACIYAGISGSTYYASWAKGRFTISKTSSTTVTLQMTSLTAADTATYFCARDPYHFDYGSLWGPGTLVTVSS
VL: ALVMTQTPASVSAAVGGTVTINCQASQSVYGGNELSWYQQEPGQPPKLLIYSASKLASGVPSRFKGSGSGTQFTLTISGVQCDDAAAYYCAGYRTYSDDDNAFGGGTKVEIKR
In the case of B4, the binding result with GST-hMSTN 61-160aa, in the assay with GST-hMSTN 141-241aa, in the assay with GST-hMSTN 121-220aa, with GST-hMSTN 101-200aa and with GST-hMSTN 81-180aa was “no binding” in each case.

B5: GpH7-B3 G237D/GpL16-k0 (antibody, human IgG1, kappa)
heavy: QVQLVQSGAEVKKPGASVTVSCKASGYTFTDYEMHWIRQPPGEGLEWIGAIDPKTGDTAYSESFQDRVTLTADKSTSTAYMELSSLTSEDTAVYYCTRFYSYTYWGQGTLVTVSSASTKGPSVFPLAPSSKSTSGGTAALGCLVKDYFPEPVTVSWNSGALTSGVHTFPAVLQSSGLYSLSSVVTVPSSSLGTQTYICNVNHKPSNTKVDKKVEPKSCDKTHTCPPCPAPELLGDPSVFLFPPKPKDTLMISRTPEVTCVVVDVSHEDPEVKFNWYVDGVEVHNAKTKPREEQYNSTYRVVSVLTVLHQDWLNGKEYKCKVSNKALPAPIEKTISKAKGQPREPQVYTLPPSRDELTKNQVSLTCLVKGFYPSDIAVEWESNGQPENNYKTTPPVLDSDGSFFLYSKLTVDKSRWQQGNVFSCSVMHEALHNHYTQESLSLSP
light: DIVMTQSPLSLPVTPGEPASISCQASESLVHSNRNTYLHWYLQKPGQSPQLLIYKVSNRFSGVPDRFSGSGSGTDFTLKISRVEAEDVGVYYCSQNTHVPPTFGQGTKVEIERTVAAPSVFIFPPSDEQLKSGTASVVCLLNNFYPREAKVQWKVDNALQSGNSQESVTEQDSKDSTYSLSSTLTLSKADYEKHKVYACEVTHQGLSSPVTKSFNRGEC
notes: copies: 2 + 2
Consider B5, for which the relative binding in [8] and in [9] was 0 parent B3=100 throughout.

B6: MST1572 (antibody, human IgG1, kappa, V domains shown)
VH: QSVEESGGRLVTPGTPLTLTCTVSGFSLSSYAMSWVRQAPGKGLEWIGIIYGVGSTYYASWAKGRFTISKTSTTVDLKIASPTTEDTATYFCARDDYGWGYTNLWGPGTLVTVSS
VL: QVLTQTPSSVSAAVGGTVTINCQSSQSVYNNNYLAWFQQKPGQPPKLLIYDASKLASGVPSRFKGSGSGTQFTLTISGVQCDDAATYYCQGSYYSSGWYRAFGGGTKVEIKR
With B6, the binding result with GST-hMSTN 61-160aa, with GST-hMSTN 141-241aa, in the assay with GST-hMSTN 121-220aa, in the assay with GST-hMSTN 101-200aa and in the assay with GST-hMSTN 81-180aa was “no binding” throughout.

Usually Kd stands for the concentration at which binding is half-saturated.
